This assay deals with TRIM7 PRY-SPRY domain (338-511 aa) (human) (UniProt Q9C029). Kind of assay: ITC. Background: Isothermal titration calorimetry measures the heat released or taken up as one component is titrated into another.
In the case of C-terminal peptide fragment of RACO-1, the Kd (commonly the equilibrium constant for the complex coming apart) is 10 µM.

As for “C-terminal peptide fragment of glycogenin-1 (GN1)”, the Kd stood at 8 µM.

“CVB3 2C (117-329 aa) (domain or fragment)” had a dissociation constant (Kd) of 6 µM.

CVB3 2C-derived peptide (319-329 aa) had an equilibrium dissociation constant (Kd) of 3 µM.
